Series [1] can be described thus: The results of in vitro plasma stability, microsomal stability, CYP inhibition and PK profile of S100A8/A9 peptides and rCT-S100A8/A9 proteins. The protocol: (§1) Table printed on a drawing sheet, Fig. 5B
(§2) Title: The results of in vitro plasma stability, microsomal stability, CYP inhibition and PK profile of S100A8/A9 peptides and rCT-S100A8/A9 proteins
(§3) The patent's description of the figure: FIGS. 5A and 5B show the drug-like properties of rCT-S100A8/A9. […] Bacteria-purified 6×His-rCT-S100A8/9, rVehicle or rCT was analyzed by Coomassie staining or IB using αHis (bottom, left). BMDMs were incubated with rVehicle, rCT, or rCT-S100A8/9 for the indicated times and at the indicated concentrations, and then cell viability was measured by MTT assay (bottom, right). […] HLM, human liver microsomes; CYP, cytochrome P450. aTmax, arrival time; AUClast, total area under the plasma concentration-time curve from time 0 to the time of the last measurement; Cmax, maximum plasma concentration;
First reader's note: One record is the S100A8/A9 peptide and the other the recombinant rCT-S100A8/A9 protein; the CYP columns give remaining CYP isoform activity (CYP inhibition).

On the set-up of series [2]: species or system mice. As to conditions: mouse, in vivo. Here is the method:
FIGS. 6A-6D show the effect of rCT-S100A8/A9 peptide on colon targeting. […] Mice were exposed to 3% DSS for six days and evaluated on day 6 (left). For IB with αITGA6, αITGB1, or αActin, multiple organ harvests were used and ITGA6+ or ITGB1+ cell numbers were analyzed through FACS. […] Intraperitoneal administration of rCT-S100A8/9 conjugated with Cy5.5 for one hour and colon harvest. Colon harvests were used for IB including αITGA6, αITGB1, or αActin and ITGA6+ or ITGB1+ cell numbers were analyzed through FACS. […] Mice were treated with 3% DSS for six days and administered 1, 2, or 3 doses of Texas Red conjugated with rCT-S100A8/9. Colons were harvested in a time-dependent manner and analyzed for Texas Red+ cell numbers through FACS. Data is representative of three independent experiments with similar results. Data is shown as the mean±SD of three experiments;
S100A8 or S100A9 peptides or rCT-S100A8/9 was conjugated to Texas Red using the Texas Red® Conjugation Kit (Fast)-Lightning-Link (Abcam) to quantitatively measure cellular uptake in macrophages and pharmacodynamics in a colitis model. Cells were washed thoroughly and quickly with pulse spins and immediately acquired for analysis on FACSCalibur (BD Biosciences, San Jose, CA, USA). Data was plotted using CellQuest software (BD Biosciences) and analyzed using FlowJo software (Tree Star, Ashland, OR, USA). […]

Series [3] is described as follows: The results of in vitro plasma stability, microsomal stability, CYP inhibition and PK profile of S100A8/A9 peptides and rCT-S100A8/A9 proteins. The protocol:
as §1, §2, §3
First reader's note: All values were measured after ip dosing of 1 mg/kg in mice (n = 5); the footnote for the raised a is not printed on the sheet, and the title stands once above both tables.
This is another data set of the same source.

On the set-up of series [4]: species or system BALB/c mice. As to conditions: mouse, in vivo. The protocol: FIGS. 12A-12E show biological effects of rCT-S100A8/9 in tumor-bearing mice. […] Each vertical bar represents the mean±SD of cell viability at each dose. Data is shown as the mean±SD of six experiments. […] HCT116 cells were injected subcutaneously into the flanks of BALB/c mice as described in the Methods section. Mice were administered one or two intraperitoneal doses and sacrificed on day 5. Their expression was assessed by IB in various organs of mice. WCLs were used for IB including αActin. Data is representative of four independent experiments with similar results. […] E-cadherin, N-cadherin, and β-catenin staining of the tumors. […] IgG levels specific for rCT-S100A8/9 or ovalbumin (OVA) were measured using ELISA. […] Serum cytokine levels were measured 30 days after administration. […]
Cytokine content was analyzed in cell culture supernatants and mouse sera using the BD OptEIA ELISA set (BD Pharmingen) to detect TNF-α, IL-6, IL-1β, and IL-18. […]
A major concern with protein therapeutics derived from endogenous human proteins is that they may induce strong anti-therapeutic antibody responses and stimulate undesirable immune responses. […] Therefore, the immunogenicity of rCT-S100A8/A9 was assessed by measuring the production of anti-rCT-S100A8/A9 antibodies in mice immunized with the peptide according to the present invention. […]

B1: TWYKIAFQRNRKTWYKIAFQRNRKTWYKIAFQRNRKTWYKIAFQRNRKTWYKIAFQRNRKGGFLVIKGGAHKSHKGGITIITFGGGHHGGFLVIKGGAHKSHKGGITIITFGGGHHGGFLVIKGGAHKSHKGGITIITFGGGHHGG (protein)
chain: TWYKIAFQRNRKTWYKIAFQRNRKTWYKIAFQRNRKTWYKIAFQRNRKTWYKIAFQRNRKGGFLVIKGGAHKSHKGGITIITFGGGHHGGFLVIKGGAHKSHKGGITIITFGGGHHGGFLVIKGGAHKSHKGGITIITFGGGHHGG
modifications: N-terminal 6xHis tag
For the molecule B1, the “Stability (% remaining after 30 min) | HLM” value in series [1] was found to be 92.1 % remaining after 30 min. Further, the “retained in the colon” value in series [2] is 50%. In series [3], the “PK parameters (ip, 1 mg/kg, mice (n = 5))^a | AUClast” value worked out at 235.82 ± 51.48 ng·h/mL; the “PK parameters (ip, 1 mg/kg, mice (n = 5))^a | Cmax” value was determined as 213.12 ± 25.38 ng/mL; the “PK parameters (ip, 1 mg/kg, mice (n = 5))^a | T1/2” value was found to be 1.91 ± 0.42 h; the “PK parameters (ip, 1 mg/kg, mice (n = 5))^a | Tmax” value stood at 13.8 ± 0 min. In series [4], the “production of pro-inflammatory cytokines” value was “negligible”.

The values are drawn from patent publication US20250154215A1, “PHARMACEUTICAL COMPOSITION FOR TREATING COLITIS OR COLORECTAL CANCER COMPRISING COLON-TARGETED S100A8/A9-DERIVED SPECIFIC PEPTIDE” (Industry-University Cooperation Foundation Hanyang …, priority 2023, published 2025).
